Test results as given in patent US12414933B2, “Polyphosphazene drug carriers” (ONSELEX PHARMACEUTICALS, INC., priority 2019, dated 2025).

System: Sprague-Dawley rats
Assay: Intravenous toxicity study: maximum tolerated dose after a single IV injection, 7-day observation
Format: in vivo, rat
Source text: The objective of this study was to determine the maximum tolerated dose in test animals following a single parenteral administration, in this case an intravenous (IV) injection, of the drug delivery compositions to Sprague-Dawley rats followed by a 7-day observation period.
In this Example, drug delivery compositions were optimized to carry and deliver the active chemotherapeutic agent Paclitaxel (PTX at about 5%). (See, Table 5 infra). Briefly, under sterile conditions in a laminar flow cabinet sterile water for formation and injection purposes was added to the appropriate amount of drug deliver composition to provide concentrations of 350, 817, 1167, and 1750 mg/mL. The diluted drug deliver compositions were stirred, mixed, or vortexed as necessary to achieve sufficient distribution. The prepared drug deliver compositions were stored protect from light at ambient temperature. The final formulation for each concentration was passed through a 0.2 μm filter prior to administration. The target volume prepared for each dose was 1.55 mL. The actual volume dispensed post-filtering was recorded. Final formulations for administration can be used up to 4 hours after preparation.
Subjects in this Example consisted of age appropriate to weight intact male Sprague-Dawley rats. Various commercial sources of Sprague-Dawley rats are acceptable for supply of Subject animals. Maximum Subject animal weight at initiation of the administrations was 330 gm while minimum weight was 260 gm. Subject animals were housed, feed, provided watered ad libitum, and observed according to standard animal husbandry protocols. Subject animals were excluded for any observable disease or injury that could affect study outcome. […]

“[NP(MPEG550)3(Lys-OEt)(AA)(PTX)]n [PETTAX-121]” was tested, and the “Clinical results: morbidity / euthanasia” value (Group 4: single slow bolus IV 8750 mg/kg PETTAX-121 (PTX 437.5 mg/kg), 1 male rat) was “euthanized 20 hours after administration due to observed morbidity”, the “Clinical results: tolerability / adverse reactions” value (Groups 1-3: single slow bolus IV 1750, 4083 and 5833 mg/kg PETTAX-121 (PTX 87.5, 204.2, 291.7 mg/kg), 1 male rat per group, 7-day observation) was “tolerated their respective administration well with no observed adverse reactions or clinically significant observations” and the “Clinical results: physical changes” value (Groups 1-3: single slow bolus IV 1750, 4083 and 5833 mg/kg PETTAX-121, 1 male rat per group, 7-day observation) was “no significant physical changes”.
